Results taken from US20060058504A1, “Peptides capable of inducing attraction to the axonal growth and their use for treating neurodegenerative diseases” (Centre National de la Recherche Scientific (CNRS), priority 2002, published 2006).
Numbering of substitutions follows the chain as printed. Numbers in names are those of the source. Entries after “also recorded” stand apart in the source; their conditions may differ. Read-outs that look alike come from different tables or passages of the source.

Key:
[1] = biological target: the molecule itself; test: two-color FACS bead aggregation, mutant to mutant (FIG. 2B)
Protocol: Excess unbound protein was removed by washing with PBS/5% FCS. […] Samples were diluted 1:5000 into ice cold PBS and the proportion of 2 colour aggregates was assessed using a fluorescence activated cell sorter (Becton Dickenson FACSort). […] Every mutant protein was assayed at least 3 separate times and standardised to a wild-type control conducted in parallel.

[2] = biological target: T1, full-length wild-type human L1 expressed in COS7 cells (human, UniProt P32004 20-1257); test: immunofluorescence of L1Fc on COS cells expressing wild-type L1
T1 construct: whole, on cells; also called wild-type L1; transmembrane L1
Protocol: Briefly, COS-7 cells were transiently transfected with 10 μg DNA per 150 mm culture dish, the soluble Fc chimeric protein was allowed to accumulate in the media for 6 days and was recovered and purified by protein A-Sepharose affinity chromatography. In the binding experiments, L1Fcs were cross-linked to anti-human Fc antibodies (50 μg/ml, Jackson Immunoresearch) for 1 hr at 37° C. […] Following incubation, the cells were fixed with 4% PFA, and processed for double-immunofluorescence detection. NP-1 was detected using a mouse anti-c myc antibody (clone 9E10, Sigma) and L1 using a rat monoclonal anti-L1 antibody. […] After secondary antibody incubation, the cells were washed with PBS and mounted in Mowiol (Calbiochem).

[3] = test system: cortical axons repelled by Sema3A secreted from the ventral spinal cord; test: Co-culture of cortical slices and ventral spinal cord explants (axon guidance response to Sema3A); assay type: cell-based, mice; conditions: for switching of Sema3A repulsion to attraction by L1Fc chimera: chimera 3 μg/ml in culture medium; for guidance index: qualitative index from −2 (repulsion) to +2 (attraction), L1Fc chimeras 3 μg/ml, ODQ 10^−5M
Protocol: Blocks of cortex were dissected from P0 (postnatal day 0) to P2 mice and cut into 250 μm thick slices with a McIlwain tissue chopper. The ventral part of the cervical spinal cord was dissected and cut into 250 μm thick slices. Co-culture of cortical slices and ventral spinal cord explants were performed in a three-dimensional plasma clot, as described previously (Castellani et al., 2000). Cortical slices were oriented in the plasma clot as indicated in FIG. 1B to give to axons equivalent chances to be deflected away or towards the spinal cord explant. Purified wild-type or mutant L1Fc chimeras were added to the culture medium (3 μg/ml). Inhibitors of the guanylyl cyclase (ODQ, 10^−5 M, Sigma) and NOS (7NI, […], Sigma) were added to the culture medium, either alone or with wild-type L1Fc (3 μg/ml). After one or two days in vitro (DIV), the cultures were fixed with 4% paraformaldehyde (PFA) and analyzed by phase contrast microscopy (Axiovert 35-M, Zeiss). A qualitative guidance index was attributed to the co-cultures, to assess the degree of repulsive (negative values) or attractive (positive values) effects (Castellani et al., 2000). The index ranged from −2 (when most fibers grew away from the spinal cord explant) to +2 (when most fibers grew towards the explant), with intermediate situations (index of −1 and +1 for moderate guidance effects). An index of zero was attributed to the cultures showing no preferential growth. Quantitative analysis of axon length and number of axons growing from cortical slices was performed as described previously (Castellani et al., 2000). A proximal and a distal region, each of them covering a 600 μm-piece of cortical tissue were determined for each culture. All fibers extending from these two regions were counted and the length of the three longest fibers was measured, using computer analysis software (Visiolab 2000, Biocom). Immunofluorescence labeling of axons was performed using the mouse anti-phosphorylated neurofilament antibody SMI31 (Stemberger and Meyer Inc.), and Texas red-conjugated secondary anti-mouse antibody (see result obtained for number of axons and axonal length in the following tables 1 and 2).
It has been previously developed an assay system using explants of ventral spinal cord co-cultured with cortical axons in order to determine the factors involved in axonal repulsion and attraction (Castellani et al., 2000). Using this system we have shown that Sema3A secreted from the ventral spinal cord repels cortical axons. In the presence of soluble wild-type L1Fc chimeric protein however, repulsion is switched to attraction (Castellani et al., […]). In the present study, we aimed to identify the L1 interactions underlying the switching process. As Ig domains have been implicated in binding of Ig CAMs to many of their ligands (Brümmendorf and Rathjen, 1996) we hypothesized that they would also be required for L1 Fc-mediated switching. […] L1 Fc chimeras containing pathological missense mutations affecting specific Ig domains (De Angelis et al., 1999 and FIGS. 1A, 1B) were assessed for their ability to reverse Sema3A repulsion to attraction.

full length human L1 = biological target: T2, full length human L1 (Homo sapiens, UniProt P32004); test: Binding of L1Fc chimeras to COS cells expressing wild-type L1 (immunofluorescence)
T2 construct: transiently transfected with expression vectors encoding full length human L1; expressed in transfected cells; host or cells: COS7
T2 sequence (P32004 20-1257): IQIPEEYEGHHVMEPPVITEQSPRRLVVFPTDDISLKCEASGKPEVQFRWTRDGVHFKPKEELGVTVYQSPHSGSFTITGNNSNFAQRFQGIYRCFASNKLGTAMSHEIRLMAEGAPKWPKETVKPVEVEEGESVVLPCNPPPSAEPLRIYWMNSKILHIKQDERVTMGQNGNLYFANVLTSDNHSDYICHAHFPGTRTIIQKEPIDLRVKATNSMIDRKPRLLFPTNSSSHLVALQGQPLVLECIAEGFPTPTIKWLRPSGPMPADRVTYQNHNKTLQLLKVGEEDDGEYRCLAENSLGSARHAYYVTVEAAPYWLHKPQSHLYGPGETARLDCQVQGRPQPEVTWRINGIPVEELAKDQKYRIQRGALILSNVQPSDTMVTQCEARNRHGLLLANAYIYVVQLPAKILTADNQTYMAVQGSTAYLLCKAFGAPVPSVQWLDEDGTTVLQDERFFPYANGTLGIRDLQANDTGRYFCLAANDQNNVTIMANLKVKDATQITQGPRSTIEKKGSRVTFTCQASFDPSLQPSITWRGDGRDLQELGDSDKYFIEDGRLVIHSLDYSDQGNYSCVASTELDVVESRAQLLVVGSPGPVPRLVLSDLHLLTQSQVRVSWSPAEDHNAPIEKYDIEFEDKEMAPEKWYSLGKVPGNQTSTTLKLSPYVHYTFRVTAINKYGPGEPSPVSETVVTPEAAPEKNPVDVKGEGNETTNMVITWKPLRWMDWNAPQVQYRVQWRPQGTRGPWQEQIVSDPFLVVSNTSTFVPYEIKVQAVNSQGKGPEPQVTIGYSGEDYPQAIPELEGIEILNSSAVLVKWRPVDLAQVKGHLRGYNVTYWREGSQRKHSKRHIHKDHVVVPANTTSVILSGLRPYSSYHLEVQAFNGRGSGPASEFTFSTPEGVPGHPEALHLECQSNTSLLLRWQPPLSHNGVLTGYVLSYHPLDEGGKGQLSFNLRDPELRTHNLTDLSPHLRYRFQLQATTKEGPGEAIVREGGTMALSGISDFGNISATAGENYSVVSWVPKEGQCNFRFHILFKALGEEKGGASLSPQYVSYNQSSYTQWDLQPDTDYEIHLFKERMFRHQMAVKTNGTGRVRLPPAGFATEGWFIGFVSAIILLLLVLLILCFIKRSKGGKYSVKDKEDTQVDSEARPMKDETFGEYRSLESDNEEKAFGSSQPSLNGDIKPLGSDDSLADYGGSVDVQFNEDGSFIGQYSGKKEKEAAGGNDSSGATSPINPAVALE
Protocol: (§1) The mutant L1Fc chimeras were produced and purified as described previously (De Angelis et al., 1999). Briefly, COS-7 cells were transiently transfected with 10 μg DNA per 150 mm culture dish, the soluble Fc chimeric protein was allowed to accumulate in the media for 6 days and was recovered and purified by protein A-Sepharose affinity chromatography. In the binding experiments, L1Fcs were cross-linked to anti-human Fc antibodies (50 μg/ml, Jackson Immunoresearch) for 1 hr at 37° C. Binding detection to NP-1 requested concentrations of L1Fcs 10 folds higher than L1. Antibody conjugated L1-Fc protein was then incubated with monolayers of COS7 cells transiently transfected with expression vectors encoding full length human L1 or myc-tagged NP-1 where the cytoplasmic domain is deleted (gift of J. Raper, 2000 and Renzi et al., 1999). Following incubation, the cells were fixed with 4% PFA, and processed for double-immunofluorescence detection. NP-1 was detected using a mouse anti-c myc antibody (clone 9E10, Sigma) and L1 using a rat monoclonal anti-L1 antibody. Secondary antibody anti-c-myc (Texas-red conjugated anti-mouse antibodies) was used to detect NP-1, anti-L1 (Texas red conjugated anti-rat antibodies) to detect L1, and anti-Fc (FITC conjugated anti-rabbit antibodies) to detect bound L1Fc chimeras. After secondary antibody incubation, the cells were washed with PBS and mounted in Mowiol (Calbiochem).
Thus, Ig CAMs F3 and TAG-1 (the rodent homologue of axonin-1) ate unlikely to be axonal receptors for L1Fc in the reversion process. […] In the present study however, mutated L1Fc proteins were required to interact with wild-type L1 expressed on growth cones. To formally exclude a role for homophilic binding of L1 in the initiation of the reversion process, it was therefore necessary to examine whether homophilic binding of the mutated L1Fc chimeras to wild-type L1 was also disrupted. Mutated L1Fcs were therefore incubated with COS7 cells transfected with full-length wild-type L1 cDNA and binding was assessed by immunofluorescence. In parallel, homophilic binding of mutant/mutant and mutant/wild-type L1Fcs was compared in a two-color FACS aggregation assay, allowing a quantitative assessment to be made (see Methods). […] Similarly, in the two color FACS assay homophilic binding was restored to 74.4% and 90.5% of wild-type levels for A426D and H210Q respectively (FIG. 2B). […] This mutation however still promoted the L1 Fc induced switching of Sema3A repulsion to attraction in the co-culture assay. Thus, the ability of L1Fc to switch Sema3A repulsion is not dependent on homophilic binding. Consequently, the trans interaction of L1Fc with L1 in the receptor complex is not required for the change in growth cone responsiveness to Sema3A.

wild-type L1 = test: Two-color FACS aggregation assay (homophilic binding); conditions: mixed aggregates at the 30-minute time-point; mutant/wild-type
Sequence of wild-type L1 (P32004 with tags, fused parts or gaps limits assumed): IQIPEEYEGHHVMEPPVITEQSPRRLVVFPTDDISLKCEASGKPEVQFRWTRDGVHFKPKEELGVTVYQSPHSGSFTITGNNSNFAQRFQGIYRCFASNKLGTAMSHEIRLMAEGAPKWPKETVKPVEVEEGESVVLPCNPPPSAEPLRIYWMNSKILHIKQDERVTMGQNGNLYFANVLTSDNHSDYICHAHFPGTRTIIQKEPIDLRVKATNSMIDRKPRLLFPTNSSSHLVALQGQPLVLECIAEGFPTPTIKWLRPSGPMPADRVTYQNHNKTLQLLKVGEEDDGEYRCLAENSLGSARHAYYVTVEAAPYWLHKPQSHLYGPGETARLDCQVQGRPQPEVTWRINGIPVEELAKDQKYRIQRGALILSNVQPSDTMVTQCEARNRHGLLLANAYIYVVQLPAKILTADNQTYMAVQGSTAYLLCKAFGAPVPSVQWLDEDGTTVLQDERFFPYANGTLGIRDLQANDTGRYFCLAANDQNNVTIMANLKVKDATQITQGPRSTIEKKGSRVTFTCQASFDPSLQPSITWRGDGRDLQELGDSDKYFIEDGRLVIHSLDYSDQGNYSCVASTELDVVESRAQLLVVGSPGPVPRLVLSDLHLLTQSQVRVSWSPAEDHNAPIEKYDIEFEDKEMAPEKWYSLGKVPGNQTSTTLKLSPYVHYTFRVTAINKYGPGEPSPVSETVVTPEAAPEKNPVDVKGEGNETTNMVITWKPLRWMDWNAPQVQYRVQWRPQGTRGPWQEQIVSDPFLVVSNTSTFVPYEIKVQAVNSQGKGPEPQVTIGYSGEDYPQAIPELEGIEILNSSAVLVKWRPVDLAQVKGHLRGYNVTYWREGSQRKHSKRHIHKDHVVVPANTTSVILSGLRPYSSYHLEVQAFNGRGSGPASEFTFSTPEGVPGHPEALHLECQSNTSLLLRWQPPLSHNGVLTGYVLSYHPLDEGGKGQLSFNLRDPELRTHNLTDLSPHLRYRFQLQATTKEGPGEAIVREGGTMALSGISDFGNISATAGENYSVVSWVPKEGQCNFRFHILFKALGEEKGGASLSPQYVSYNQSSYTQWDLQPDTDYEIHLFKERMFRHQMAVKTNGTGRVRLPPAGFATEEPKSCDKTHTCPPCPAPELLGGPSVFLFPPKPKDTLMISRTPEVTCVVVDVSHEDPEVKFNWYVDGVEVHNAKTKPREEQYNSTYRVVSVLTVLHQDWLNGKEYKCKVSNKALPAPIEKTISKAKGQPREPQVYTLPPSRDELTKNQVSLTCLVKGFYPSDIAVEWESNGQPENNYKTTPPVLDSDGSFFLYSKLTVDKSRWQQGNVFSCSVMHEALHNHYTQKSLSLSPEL
Protocol: A two-color aggregation assay was developed, modified from the homophilic binding assay described by De Angelis et al. (1999). For the two-color assay, red and green fluorescent microsphere beads (0.6 um, Duke Scientific Corps.) were coated with anti-human IgG antibody (Fc specific; Sigma, 1-2136). 2.5 μg of wild type (red beads) or mutant (green beads) L1Fc-proteins were conjugated to 10 μl of antibody-coated beads by incubating for 2 hrs at 37° C. Excess unbound protein was removed by washing with PBS/5% FCS. For each mutant, a 1:1 mixture of wild-type L1 and mutant L1 coated beads was prepared, dissaggregated to produce a single bead suspension and allowed to form mixed aggregates at 37° C. with samples removed in duplicate over a 30-minute time course. Samples were diluted 1:5000 into ice cold PBS and the proportion of 2 colour aggregates was assessed using a fluorescence activated cell sorter (Becton Dickenson FACSort). Ten thousand particles were counted per sample and categorised as red only (WT-L1: WT-L1), green only (Mutant L1: Mutant L1) or mixed aggregates. Every mutant protein was assayed at least 3 separate times and standardised to a wild-type control conducted in parallel.

NP-1 = test: Binding of L1Fc chimeras to NP-1 expressing COS7 cells (immunofluorescence)
Protocol: as §1
Next, we examined the ability of the mutant L1 Fc chimeras to bind NP-1. COS7 cells were transfected with a vector encoding the extracellular and transmembrane domains of NP-1 fused to a myc tag (ANP-1, Renzi et al., J. Neurosci., 15:7870-7880, 1999), and incubated with the mutant L1Fc chimeras. Binding was detected by immunofluorescence. […] Binding of L120V, G121S and A426D L1Fcs to NP-1 is illustrated in FIG. 3.

L1 = conditions: mutant bound to itself; cited from earlier work
F3, axonin-1 and TAX-1 = conditions: F3, axonin-1 (and TAX-1 where stated); cited from earlier work
Plexin-A1 = Plexin-A1 (Homo sapiens, UniProt Q9UIW2); test: Binding of L1Fc to Plexin-A1 expressing COS7 cells (immunofluorescence)
Sequence of Plexin-A1 (Q9UIW2 27-1896, species assumed): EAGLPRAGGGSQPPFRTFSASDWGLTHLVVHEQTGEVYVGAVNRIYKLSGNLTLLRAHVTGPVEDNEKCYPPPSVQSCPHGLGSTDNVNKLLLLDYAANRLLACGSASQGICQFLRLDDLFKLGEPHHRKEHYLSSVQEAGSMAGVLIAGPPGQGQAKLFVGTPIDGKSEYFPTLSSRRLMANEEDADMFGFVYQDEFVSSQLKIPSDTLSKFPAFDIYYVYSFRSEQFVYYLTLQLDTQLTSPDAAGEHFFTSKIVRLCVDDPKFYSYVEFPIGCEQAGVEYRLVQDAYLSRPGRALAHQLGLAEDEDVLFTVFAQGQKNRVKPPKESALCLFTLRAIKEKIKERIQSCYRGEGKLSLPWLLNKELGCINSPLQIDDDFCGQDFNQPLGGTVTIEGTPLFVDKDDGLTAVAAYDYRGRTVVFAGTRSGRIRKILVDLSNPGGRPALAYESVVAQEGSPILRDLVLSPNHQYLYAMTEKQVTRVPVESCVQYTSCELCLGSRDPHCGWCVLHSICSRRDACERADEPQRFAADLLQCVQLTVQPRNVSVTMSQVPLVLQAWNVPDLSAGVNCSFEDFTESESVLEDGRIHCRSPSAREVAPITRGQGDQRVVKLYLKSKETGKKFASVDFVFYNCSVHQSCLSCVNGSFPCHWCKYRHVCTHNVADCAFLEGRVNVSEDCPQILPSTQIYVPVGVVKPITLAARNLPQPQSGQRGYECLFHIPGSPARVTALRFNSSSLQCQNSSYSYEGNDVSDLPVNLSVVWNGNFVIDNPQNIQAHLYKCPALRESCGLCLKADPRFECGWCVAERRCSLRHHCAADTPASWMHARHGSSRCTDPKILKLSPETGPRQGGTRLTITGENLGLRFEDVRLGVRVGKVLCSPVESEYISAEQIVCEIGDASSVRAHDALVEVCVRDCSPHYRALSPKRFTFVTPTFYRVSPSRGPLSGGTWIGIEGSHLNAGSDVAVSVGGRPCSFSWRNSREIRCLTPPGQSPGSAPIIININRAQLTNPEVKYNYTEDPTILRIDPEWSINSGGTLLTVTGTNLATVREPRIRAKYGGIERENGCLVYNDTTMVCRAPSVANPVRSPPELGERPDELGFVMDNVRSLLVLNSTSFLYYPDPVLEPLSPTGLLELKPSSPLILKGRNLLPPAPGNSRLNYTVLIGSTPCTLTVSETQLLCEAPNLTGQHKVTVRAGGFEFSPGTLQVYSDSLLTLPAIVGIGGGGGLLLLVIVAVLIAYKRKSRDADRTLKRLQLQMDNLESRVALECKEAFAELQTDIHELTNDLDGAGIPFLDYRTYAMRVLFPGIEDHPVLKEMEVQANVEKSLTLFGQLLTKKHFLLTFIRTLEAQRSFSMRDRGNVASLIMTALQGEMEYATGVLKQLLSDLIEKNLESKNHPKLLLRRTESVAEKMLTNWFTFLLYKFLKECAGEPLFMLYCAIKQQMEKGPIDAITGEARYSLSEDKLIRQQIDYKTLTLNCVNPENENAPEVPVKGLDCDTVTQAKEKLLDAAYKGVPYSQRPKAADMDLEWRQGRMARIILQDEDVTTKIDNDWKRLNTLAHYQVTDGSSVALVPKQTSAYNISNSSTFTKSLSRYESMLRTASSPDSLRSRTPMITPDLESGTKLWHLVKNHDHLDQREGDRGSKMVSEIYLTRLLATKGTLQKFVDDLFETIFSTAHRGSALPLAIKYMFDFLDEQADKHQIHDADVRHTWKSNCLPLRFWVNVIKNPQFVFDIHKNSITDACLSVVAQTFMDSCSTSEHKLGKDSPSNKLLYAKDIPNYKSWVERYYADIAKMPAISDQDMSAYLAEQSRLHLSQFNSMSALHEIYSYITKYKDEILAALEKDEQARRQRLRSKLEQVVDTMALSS

[4] = Ctx/vSC co-culture, growth away from spinal cord explant, L1Fc 3 μg/ml, ODQ 10^−5 M
[5] = Ctx/vSC co-culture, growth towards spinal cord explant, L1Fc 3 μg/ml, ODQ 10^−5 M

B1: G121S mutant L1Fc chimera (Fc fusion, UniProt P32004 20-1120, looked up)
chain: IQIPEEYEGHHVMEPPVITEQSPRRLVVFPTDDISLKCEASGKPEVQFRWTRDGVHFKPKEELGVTVYQSPHSGSFTITGNNSNFAQRFQGIYRCFASNKLSTAMSHEIRLMAEGAPKWPKETVKPVEVEEGESVVLPCNPPPSAEPLRIYWMNSKILHIKQDERVTMGQNGNLYFANVLTSDNHSDYICHAHFPGTRTIIQKEPIDLRVKATNSMIDRKPRLLFPTNSSSHLVALQGQPLVLECIAEGFPTPTIKWLRPSGPMPADRVTYQNHNKTLQLLKVGEEDDGEYRCLAENSLGSARHAYYVTVEAAPYWLHKPQSHLYGPGETARLDCQVQGRPQPEVTWRINGIPVEELAKDQKYRIQRGALILSNVQPSDTMVTQCEARNRHGLLLANAYIYVVQLPAKILTADNQTYMAVQGSTAYLLCKAFGAPVPSVQWLDEDGTTVLQDERFFPYANGTLGIRDLQANDTGRYFCLAANDQNNVTIMANLKVKDATQITQGPRSTIEKKGSRVTFTCQASFDPSLQPSITWRGDGRDLQELGDSDKYFIEDGRLVIHSLDYSDQGNYSCVASTELDVVESRAQLLVVGSPGPVPRLVLSDLHLLTQSQVRVSWSPAEDHNAPIEKYDIEFEDKEMAPEKWYSLGKVPGNQTSTTLKLSPYVHYTFRVTAINKYGPGEPSPVSETVVTPEAAPEKNPVDVKGEGNETTNMVITWKPLRWMDWNAPQVQYRVQWRPQGTRGPWQEQIVSDPFLVVSNTSTFVPYEIKVQAVNSQGKGPEPQVTIGYSGEDYPQAIPELEGIEILNSSAVLVKWRPVDLAQVKGHLRGYNVTYWREGSQRKHSKRHIHKDHVVVPANTTSVILSGLRPYSSYHLEVQAFNGRGSGPASEFTFSTPEGVPGHPEALHLECQSNTSLLLRWQPPLSHNGVLTGYVLSYHPLDEGGKGQLSFNLRDPELRTHNLTDLSPHLRYRFQLQATTKEGPGEAIVREGGTMALSGISDFGNISATAGENYSVVSWVPKEGQCNFRFHILFKALGEEKGGASLSPQYVSYNQSSYTQWDLQPDTDYEIHLFKERMFRHQMAVKTNGTGRVRLPPAGFATE
notes: also called G121S-L1Fc; not shown: immunoglobulin Fc, human
- binding result [1]: binds
- binding result [2]: no binding

B2: L120V: L1Fc chimera with missense mutation L120V in Ig domain 1 (protein)
chain: B1 chain with L101V, S102G
modifications: left off: a dimerising Fc or GST
- switching of Sema3A repulsion to attraction by L1Fc chimera [3]: unable to switch the repulsive activity of Sema3A to attraction; also recorded: abrogated the reversal of Sema3A repulsion to attraction; also recorded: failed to reverse Sema3A effect
- guidance index [3]: −1.3
- binding to wild-type L1 expressed in COS cells (full length human L1): bound to wild-type L1
- homophilic binding to wild-type L1, percent of wild-type levels (wild-type L1): 100%
- binding to NP-1 expressing cells (NP-1): did not
- binding to NP-1 expressing cells (NP-1; listed as L120V-L1Fc): did not bind NP-1
- effect of mutation on homophilic binding (L1): does not affect
- effect of mutation on heterophilic binding (F3, axonin-1 and TAX-1): does not affect

B3: G121S: L1Fc chimera with missense mutation G121S in Ig domain 1 (protein)
chain: B1 chain
modifications: left off: a dimerising Fc or GST
- switching of Sema3A repulsion to attraction by L1Fc chimera [3]: able to reverse Sema3A repulsion to attraction; also recorded: efficiently induce switching of Sema3A repulsion to attraction; also recorded: switched Sema3A from repulsion to attraction to the same extent as wild type L1Fc
- binding to wild-type L1 expressed in COS cells (full length human L1): did not; also recorded: almost abolished homophilic binding to wild-type L1
- homophilic binding to wild-type L1, percent of wild-type levels (wild-type L1): extremely low; also recorded: almost abolished homophilic binding to wild-type L1
- binding to NP-1 expressing cells (NP-1): bound to NP-1 expressing cells
- effect of mutation on homophilic binding (L1): reduce homophilic binding
- effect of mutation on heterophilic binding (F3, axonin-1 and TAX-1): reduce

B4: L1Fc: soluble wild-type L1Fc chimeric protein (protein)
chain: B1 chain with S102G
modifications: left off: a dimerising Fc or GST
notes: soluble wild-type L1Fc chimeric protein
- Axonal length, Away [3, 4]: 198.6 +/− 4
- Number of axons, Away [3, 4]: 5.8 +/− 0.7
- Axonal length, Towards [3, 5]: 346.8 +/− 5, *
- Number of axons, Towards [3, 5]: 22.6 +/− 1.6, *
- switching of Sema3A repulsion to attraction by L1Fc chimera [3]: switched repulsion to attraction
- guidance index [3]: +1.5
- binding to wild-type L1 expressed in COS cells (full length human L1): clear binding
- binding to wild-type L1 expressed in COS cells (full length human L1; listed as Wild-type L1 Fc): bound to L1
- binding to Plexin-A1 expressing cells (Plexin-A1): no binding to Plexin-A1 expressing cells
- binding to Plexin-A1 expressing cells (Plexin-A1; listed as Wild-type L1 Fc): not Plexin-A 1-expressing cells
